Reference: the RNAGym collection of RNA variant scans (doi:10.1073/pnas.2313332121)

B1: TPR t1 (parent)
chain: GACCAAUCUGCCCUCAGAGCUCGAGAACAUCUUCGGAUGCAGAGGAGGCAGGCUUCGGUGGCGCGAUAGCGCCAACGUCCUCAACCUCCAAUGCAUCCCACCACAUGAUGAUGCCUGAAGAGCCUUGGUUUUUUG

Variants of: B1
Assay: polymerase ribozyme fitness, log enrichment relative to wild type (log ratio); higher = more active; in vitro selection for triplet polymerase activity
Method in brief: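 Fitness is a logarithmic measure of how a genotype enriched relative to the wild type, with replicate averages weighted by inverse variance. The logarithm uses base 2, and enrichment came from Illumina sequencing of input and output libraries. Those libraries were PCR-built, transcribed mutants of each subunit of a heterodimeric triplet polymerase ribozyme, passed through one triplicate in vitro selection round that included frozen incubation at −7 °C, gel excision of extended constructs and streptavidin-bead capture. Genotypes were kept only if they had ≥10 input reads and ≥1 read per output.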

| Variant | polymerase ribozyme fitness (log ratio) |
| --- | --- |
| C53G C123A | 0.261 |
| C82G C86U | -0.172 |
| A2C G63U U129A | -2.77 |
| A50C G57U G69A G120A G127A | -3.95 |
| A6U G60A C82G C101U G120A G128U | -2.36 |
| G117A U131A | -1.59 |
| A6G U30C C73U C124A | -1.64 |
| C62U A95C G113U G135A | -3.24 |
| C34A A50G G113U G120C | -6.31 |
| G110C C124A | -3.32 |
| C13A C40U C88U C101A U112A | -2.49 |
| G48C A83U A111C A118C | -0.0367 |
| A2C U38G C79G A121C | -2.95 |
| C15A A27C U55G | -5.9 |
| C56A A68G | -2.75 |
| C12A C34G G122U | -5.34 |
| A2C G61A C82G | -2.65 |
| U33C G69U | -1.74 |
| C72U C85U C104G U112A G122U U133G | -6.97 |
| U7C C11G A16G G52U U59G C72U | -0.58 |
| G23A G61A U87C | -6.59 |
| C13A U78G C88A A105U | -4.55 |
| C22G U92G | -5.35 |
| C22G G23A G61U C89U C114U | -3.99 |

| Variant | polymerase ribozyme fitness (log ratio) |
| --- | --- |
| G10A A18U C40U U59G G93A | -2.28 |
| A90U U106A A111U | -3.8 |
| G17A U21A G44C A46C C73G | -5.53 |
| G17U C70U U87A | -4.04 |
| G19U A41G G63U | -4.85 |
| A24G C94A | -2.52 |
| G71U A91U U132C | -2.4 |
| C3U C40G G42U C82U C89U C94U | -3.64 |
| G58A U130G | -0.629 |
| C13G G48U C64U | -2.15 |
| G36U A37U | -1.98 |
| C12U C72U A100C G113U G127A | -3.91 |
| A6U U78G A83C | -0.41 |
| C20A C76A U106A | -4.96 |
| A41U C80U C123A | -1.59 |
| C11G A37C G61U | -0.241 |
| C62U C115G U129A | -3.05 |
| C4G U78G C80U | -1.48 |
| C53U A66G U112A | -0.539 |
| C8A A27C U33G G36C G42U G110C G113C | -6.47 |
| C11A C56U | -1.61 |
| U32G A37U C73U G113A | -6.09 |
| G69C C97G C101A G107A U112G U130G | -6.6 |
| G23A C79A G110C U125G | -6.79 |

| Variant | polymerase ribozyme fitness (log ratio) |
| --- | --- |
| G63U C101A | -2.28 |
| U9G G42A C53G | -2.45 |
| U7G C15U C20U | -1.35 |
| G61A A91C C123U | 0.543 |
| C8U U92C | -0.788 |
| U59G G61U | -0.648 |
| G51C C56A G93A | -6.3 |
| G51U U78C A111C C123U | -6.69 |
| C15A A41U A43U G61A G113A G122A | -5.83 |
| G113U G120A U132A | -3.83 |
| G61A A74C G120U | -2.24 |
| G10A C49A | 0.131 |
| A18G G39C C94A U112G C124G | -5.87 |
| G19A U87G A105C A111C | -4.37 |
| G47U G69C | -3.62 |
| C101G G110U | -4.98 |
| G44A C104U | -0.855 |
| A2C C28U G71A U78A A90G | -5.83 |
| C13G C22G C72G C94U C99A G120C | -6.57 |
| C49U G71U | -0.77 |
| U59C G63A G69U | -5.13 |
| G47C G48U C62U C85U A108U A111U G120C G122C | -6.85 |
| C8G C62U C99U | -2.93 |
| U55G A95U A111C A121U G127C | 0.185 |

| Variant | polymerase ribozyme fitness (log ratio) |
| --- | --- |
| C3A G44A A46U C53G C115U | -6.56 |
| C12G A41C | -0.0245 |
| C98U A119U | -1.28 |
| G63A U112G | -1.1 |
| C11G A41U G71C A90G G110U G135A | -5.24 |
| C8U U78C U92G C115A A119U | -0.985 |
| C12G U14C U59G C73G | -2.57 |
| G10U C72A | -0.423 |
| C20A G77A | -3.54 |
| C70U C101U G117C | -5.37 |
| A29U G61C G110U | -3.06 |
| U14C G77A | -2.6 |
| A5U C73A G122A U126G | -2.29 |
| C34U G77A | -5.22 |
| C12A A16U C56A | -3.74 |
| G61A C114U | -1.49 |
| G63U A121U | 0.749 |
| C15U U55G G69A | -3.22 |
| G65C | -5.62 |
| C56U G135A | -0.436 |
| C97U G122A | -1.08 |
| A2C C3G A90U C115U | -3.68 |
| C53U U126C | -1.07 |
| A18G C123U U132A | -2.14 |

| Variant | polymerase ribozyme fitness (log ratio) |
| --- | --- |
| G69U U130G | 0.642 |
| A29G C53A C70G G110C | -5.69 |
| C11A G42C C72A | -1.79 |
| G39C C56A | -0.765 |
| A5C G42U G61C U78G C80A A84U C104G G113C A119U U125C U133A | -7.58 |
| A5U C11G C94U C104A G110C | -5.6 |
| C11G C22G A41G G128C | -5.82 |
| U78C G113A G135U | -2.01 |
| C20G C62A | -4.56 |
| C34A C64U | -2.37 |
| C53A A74U C89U | -0.387 |
| C8A G69C G110C | -4.93 |
| G69C U116C | -1.92 |
| G45U C64U A121G | -0.662 |
| A84G C98A | -6.26 |
| C11G G51U C62A G71A C89U C97U | -6.66 |
| A46C G69U G135U | -0.586 |
| C8U C13U A68G U129G | -3.57 |
| C12G G48C G135U | -1.51 |
| C11U A121G | 1.13 |
| C49U C73G | -0.732 |
| A26U G135A | -3.67 |
| G10A C20U G65A C70A A91U C104G G120U | -6.74 |
| U78C U81G | -3.03 |

| Variant | polymerase ribozyme fitness (log ratio) |
| --- | --- |
| C15G A26U G44C G117C | -2.36 |
| G48C G93U U96A A111G | -5.62 |
| C3A G110C U112A G117A U132C | -6.59 |
| U14G A18U G61A C115A U129A U132A | -3.2 |
| C70A C86A U87G | -2.94 |
| A90C C114U G128U | -4.34 |
| G52C C70A G117C | -5.92 |
| C11U C53U G110A U129A | -3.35 |
| G60A G110A U112C | -1.67 |
| C4A | -1.19 |
| C4U U9G U54C C76A | -0.732 |
| A50G C85G | -0.79 |
| G42U C70U U126G | -5.19 |
| U116A | -2.96 |
| C22A G57C G69U C76A | -5.3 |
| A5G C15U G48U C104U C124A | -0.12 |
| G71U C101A | -1.24 |
| A16U A18G | -3.02 |
| A18C G19U | -5.8 |
| C4G C12A C15A C94A C99U G110C | -6.59 |
| G63C C102A U112A | -1.64 |
| U32C G113U | -2.9 |
| C13A C56G | -2.27 |
| G63C A100U G110A C115G | -6.05 |

| Variant | polymerase ribozyme fitness (log ratio) |
| --- | --- |
| G17U C70U U78G | -3.17 |
| C76A C89U U129A | -2.51 |
| U59G A90G C97U A111C | 0.601 |
| A41G U55A U130G | -0.934 |
| C12U C56A U92G C101G A121G | -3.35 |
| C97G C123A | -4.41 |
| C97U U112A | 0.716 |
| U21G C94U | -1.8 |
| A2U G120A | -0.642 |
| A50U G61U G110A G127A | -3.84 |
| C28G A118G | -2.17 |
| C3U C73A G135U | -1.52 |
| G39U A90G C102A G117U A121C | -5.4 |
| U7A U21G A75G | -1.8 |
| C13A C40U | -1.37 |
| C56G C101A | -1.08 |
| C40U G51A G71C | -4.85 |
| C88A G107A | -5.92 |
| C3A G10A A75G C86G C98U G122A | -2.58 |
| C12A C15A C70A C72A G110U | -6.17 |
| G35C A95U C99U C104A A111C | -6.57 |
| U14C G93A G120C | -1.52 |
| G63A | -0.907 |
